Measured values taken from the MegaScale stability set (Tsuboyama et al. 2023).

B1: EEHEE_rd3_0130 (parent)
chain: TKIIVNGKTFTAPTEEEAQKIAEKLAKKAGLTVHKKNGTFELK

Variants of: B1
Assay: folding stability dG (cDNA display proteolysis); higher = more stable
Conditions: PBS, room temperature

Variant | folding stability dG [kJ/mol]
TKIIVNGKTFTAPTEEYAQKIAEKLAKKAGLTVHKKNGTFELK | 2.57
TKIIVNGKTFTEPTEEEAQKIAEKLAKKAGLTVHKKNGTFELK | -1.95
TKIIVNGKTFTDPTEEEAQKIAEKLAKKAGLTVHKKNGTFELK | -0.577
TKIIVNGKTFTAPTEEEAQKIAEKLAKKAGLTVHKKNGWFELK | 5.44
TKIIVNGKTFTAPTEEEMQKIAEKLAKKAGLTVHKKNGTFELK | -1.55
TKIIVNGKTFTAPTEEEAQKIAEKLAKKAGLTVHKKNGTFELM | 4.12
TKIIVNGKTFTAPTEEEAQKIAEKLAKKAGLTVHKKNGTFELN | 2.23
TKIIVNGKTFTAPTYEEAQKIAEKLAKKAGLTVHKKNGTFELK | 5.95
TKIIVNGKTFTAPTSEEAQKIAEKLAKKAGLTVHKKNGTFELK | 2.35
TKIIVNGKTFTAPTLEEAQKIAEKLAKKAGLTVHKKNGTFELK | 4.16
TKIIVNGKTFTAPTEEEAQKIAEKLAKKAGLTVHKKNCTFELK | 1.24
TKIIVNGKTFTAPTEEEAQKIAEKLAKKAGQTVHKKNGTFELK | -1.07
TKIIVNGKTFTAPTEEEAQKIAEKHAKKAGLTVHKKNGTFELK | -1.23
TKIIVNGKTFTAPTEEEAQKIAEKLAKPAGLTVHKKNGTFELK | 0.536
TLIIVNGKTFTAPTEEEAQKIAEKLAKKAGLTVHKKNGTFELK | 3.89
TKIIVNGKTFTAPTEEEAQKLAEKLAKKAGLTVHKKNGTFELK | 4.14
TKIIVNGKTFTAPTEEEAQKMAEKLAKKAGLTVHKKNGTFELK | 2.71
TKIIVNGKTFTAPTEEEAQKFAEKLAKKAGLTVHKKNGTFELK | 4.21
TKYIVNGKTFTAPTEEEAQKIAEKLAKKAGLTVHKKNGTFELK | 0.335
TKHIVNGKTFTAPTEEEAQKIAEKLAKKAGLTVHKKNGTFELK | -1.74

Variant | folding stability dG [kJ/mol]
TKIIVNGKTFTAPTEEEAQKIAEKLAKKAGLGVHKKNGTFELK | -1.19
TKIIVNGKTFTAPDEEEAQKIAEKLAKKAGLTVHKKNGTFELK | 1.2
TKIIVNGKTFTAPEEEEAQKIAEKLAKKAGLTVHKKNGTFELK | -2.97
TKIIVNMKTFTAPTEEEAQKIAEKLAKKAGLTVHKKNGTFELK | -0.297
TKIIVNGTTFTAPTEEEAQKIAEKLAKKAGLTVHKKNGTFELK | 1.99
TKIIVNGFTFTAPTEEEAQKIAEKLAKKAGLTVHKKNGTFELK | 5.22
TKIIVNGKTFTAPTEEEAQKIAEKLAKKAGLTVHKKNGTFWLK | 6.08
TKIIVNGKTFTAPTEEEAQKIAEKLAKKAGLTVHKKNGTFDLK | -0.845
TKIFVNGKTFTAPTEEEAQKIAEKLAKKAGLTVHKKNGTFELK | 2.41
RKIIVNGKTFTAPTEEEAQKIAEKLAKKAGLTVHKKNGTFELK | 1.35
TKIIVNGKTFTAPTEREAQKIAEKLAKKAGLTVHKKNGTFELK | 3.73
TKIIVNGKTFTAPTEEEAQKIAEKLAKKAGLTVCKKNGTFELK | 5.46
TKIIVNGKTFTAPTEEEAQKIAEKLAKKAGLTVTKKNGTFELK | 4.15
TKIIVNGKTFTAPTEEEAQKIAEKLAKKAGLTVHFKNGTFELK | 6.72
TKIIVNGKTFTAPTEEEAQKIAEKLAKKAGLTVHYKNGTFELK | 6.47
TKIIVNGKTFTAPTEEEAQKIAEKLAKKAGLTVHSKNGTFELK | 1.38
TKIIVNGKTFTAPTEEEAQKIAEKLAKKASLTVHKKNGTFELK | 0.573
TKIIVNGKTFTAPTEEEAQKIAEKLAKKAWLTVHKKNGTFELK | -1.04
TKIIVNGKTFTAPTEEEAQKIAEKLAKKADLTVHKKNGTFELK | 0.293
TKIIVNGKTFTAPTEEEAVKIAEKLAKKAGLTVHKKNGTFELK | 1.91

Variant | folding stability dG [kJ/mol]
TKIIVNGKTFTAPTEEEAQKIAEKLAKKAGLTVHKKIGTFELK | -0.808
TKIIVNGKTFTAPTEEEAQKIAEKLAKKAGLTVHKKEGTFELK | 2.64
TKIIVNGKTFVAPTEEEAQKIAEKLAKKAGLTVHKKNGTFELK | 3.19
TKIIVNGKTFTAPTEEEAQKIAEKLAKKAGLTVHKKNGTKELK | -0.163
TKIIVNGKTFTAPTEEEAQKIAWKLAKKAGLTVHKKNGTFELK | 3.74
TKIIVNGKTFTAPTEEEAQKIASKLAKKAGLTVHKKNGTFELK | 2.87
TKIIVNGKTFTAPTEEEAQKIAEKLYKKAGLTVHKKNGTFELK | -0.0377
TKIIVNGKTFTAPTEEEAQKIAEKLAKKAGLTYHKKNGTFELK | 1.05
TKIIVNGKQFTAPTEEEAQKIAEKLAKKAGLTVHKKNGTFELK | 1.59
TKIIVNGKCFTAPTEEEAQKIAEKLAKKAGLTVHKKNGTFELK | 6.96
TKIIVNGKTFTASTEEEAQKIAEKLAKKAGLTVHKKNGTFELK | 3.18
TKIIVNGKTFTAATEEEAQKIAEKLAKKAGLTVHKKNGTFELK | 3.36
TKIILNGKTFTAPTEEEAQKIAEKLAKKAGLTVHKKNGTFELK | 3.05
TKIIFNGKTFTAPTEEEAQKIAEKLAKKAGLTVHKKNGTFELK | 5.5
TKIIQNGKTFTAPTEEEAQKIAEKLAKKAGLTVHKKNGTFELK | -1.93
TKIIMNGKTFTAPTEEEAQKIAEKLAKKAGLTVHKKNGTFELK | 3.46
TKIIVNGKTFTAPTEEEAQKIAEKLAKKAGLTVHKKNGTFEVK | 3.31
TKIIVNGKTFTAPTEEEAQKIAEKLAKKAGLTVHKKNGTFEKK | 0.611
TKIIVNGKTFTAPTEEEAQKIAEKLAKKAGLTVHKKNGTFEPK | 0.318
